{"source": "patent US20210155689A1", "about": "(SHANGHAI PHARMAEXPLORER, published 2021)", "binders": {"B1": {"name": "105F1E10 (LAG-3 mouse-human chimeric antibody) (antibody, V domains shown)", "VH": "EVQLQQSGPELVKPGASVKMSCRASGYTFTDFKMHWMKQSHGKSLEWIGYIAPNNGGTAYNQKFRGKATLTVNESSNTAYMELRSLTSEDSAVYYCVDWDDVDYWGQGTTLTVSS", "VL": "DIKMTQSPSSMYASLGERVTITCKASQDINSYLSWFQQKSGKSPKTLIYRANRLVDGVPSRFSGSGSGQDYSLTISSLEYEDMGIYYCLQYVEFPLTFGAGTKLELK"}, "B2": {"name": "405B8H3 (LAG-3 mouse-human chimeric antibody) (antibody, V domains shown)", "VH": "QVQLQQSGAELVRPGASVTLSCKASGYTFTDYEMHWVKQTPVHGLEWIGATDPETGNSAYNQKFKGKAIMTADKSSSTAYMELRSLTSEDSAVYYCISTGWNDWGQGTSLTVSS", "VL": "DIKMTQSPSSMYASLGERVTITCKASQDINSYLSWFQQKPGKSPKTLIYRADRLLDGVPSRFSGSGSGQDYSLTISSLEYGDMGIYYCLQYDEFPYTFGGGTKLEIK", "notes": "also called mouse-human chimeric antibody 405B8H3"}, "B3": {"name": "409D4E10 (LAG-3 mouse-human chimeric antibody) (antibody, V domains shown)", "VH": "QVQLQQSGAELVRPGASVTLSCKASGNTFTDYEMHWVKQTPVHGLEWIGATDPETDNTAYNQKFKGKAILTTDKSSSTAYMELRSLTSEDSAVYYCITSGWNDWGQGTSLTVSS", "VL": "DIKMTQSPSSMYASLGERVTITCKASQDINSYLSWFQQKPGKSPKTLIYRANRLLDGVPSRFSGSGSGQDYSLTISSLEYEDMGIYYCLQYNEFPYTFGGGTKLEIK"}, "B4": {"name": "409B11E12 (LAG-3 mouse-human chimeric antibody) (antibody, V domains shown)", "VH": "QVQLQQSGAELVRPGASVTLSCKASGYTFTDYEMHWVKQTTVHGLEWIGATDPETSYSAYNQKFKGKAILTADKSSSTAYMELRSLTSEDSAVYYCIATGWNDWGQGTSLTVSS", "VL": "DLKMTQSPSSMYASLGERVTITCKASQDINSYLSWFQQKPGKSPKTLIYRANRLLDGVPSRFSGSGSGQDYSLTISSLEYEDMGIYYCLQYDEFPYTFGGGTKLEIK"}, "B5": {"name": "556F6B8 (LAG-3 mouse-human chimeric antibody) (antibody, V domains shown)", "VH": "RVQLKQSGPGLVQPSQSLSITCTVSGFSLIKYGVHWVRQSPGEGLEWLGVIWRGGITDYNAAFMSRLSITKDNSKSQVFFKMNSLQADDTAIYYCAKWDGPLAMDYWGQGTSVTVSS", "VL": "DIVMTQSHKFLSTSVGDRVSITCKASQDVGTTVAWYQQKPGQSPKLLIYWASTRHTGVPDRFTGSGSGTDFTLTISNVQSEDLADYFCQQYSSYPYTFGGGTKLEIK", "notes": "also called 556F8B8"}}, "data": [{"molecular_target": "T1, human LAG-3 protein with hFc tag (hLAG-3-hFc protein) (human, UniProt P18627 23-450)", "T1 construct": "also called immunogen 1; LAG-3 extracellular domain protein; not shown: human IgG Fc fragment (hFc) of the pCpC vector", "T1 sequence": "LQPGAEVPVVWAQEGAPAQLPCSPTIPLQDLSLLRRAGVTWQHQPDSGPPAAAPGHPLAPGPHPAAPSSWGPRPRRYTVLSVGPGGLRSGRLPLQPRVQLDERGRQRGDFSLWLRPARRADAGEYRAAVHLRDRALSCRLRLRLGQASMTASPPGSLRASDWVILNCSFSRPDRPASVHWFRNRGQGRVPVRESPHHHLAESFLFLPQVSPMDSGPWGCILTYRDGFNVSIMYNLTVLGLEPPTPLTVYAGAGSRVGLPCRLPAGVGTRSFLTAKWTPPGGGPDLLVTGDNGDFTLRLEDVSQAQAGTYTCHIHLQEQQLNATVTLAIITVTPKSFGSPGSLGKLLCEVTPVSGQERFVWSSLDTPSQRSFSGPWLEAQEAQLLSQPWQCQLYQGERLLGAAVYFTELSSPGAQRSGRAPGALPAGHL", "assay": "ELISA, hLAG-3-hFc coated; 0.0067 nM", "experimental": "The plate was sealed with plastic film and incubated overnight at 4° C. The plate was washed 2 times with the plate washing solution (PBS+0.01% Tween20) on the next day, and added with the blocking solution (PBS+0.01% Tween20+1% BSA) and blocked at room temperature for 1-2 hours. The blocking solution was poured out, and the plate was added with 50-100 μl of the antibody sample to be tested to each well, incubated at 37° C. for 1-2 hours, and washed 2-3 times with a plate washing solution (PBS+0.01% Tween20). HRP (horseradish peroxidase) labeled secondary antibody was added, and the plate was incubated at 37° C. for 1-2 hours, and washed 2-3 times with a plate washing solution (PBS+0.01% Tween20). 100 μl of TMB substrate was added to each well. After incubated at room temperature for 15-30 minutes, the plate was added with 100 μl of stop solution (1.0N HCl) to each well.", "units": {"OD450": "OD450"}, "values": [{"binder": "B1", "OD450": 0.3}, {"binder": "B2", "OD450": 0.57}, {"binder": "B3", "OD450": 0.63}, {"binder": "B4", "OD450": 0.47}, {"binder": "B5", "OD450": 0.38}]}]}
